Data taken from patent US20230038638A1, “COMPLEMENT FACTOR I-RELATED COMPOSITIONS AND METHODS” (published 2023).

Tests used:
human C4b (human) [1] = target: T1, human C4b (human) (UniProt P0C0L4)
T1 sequence: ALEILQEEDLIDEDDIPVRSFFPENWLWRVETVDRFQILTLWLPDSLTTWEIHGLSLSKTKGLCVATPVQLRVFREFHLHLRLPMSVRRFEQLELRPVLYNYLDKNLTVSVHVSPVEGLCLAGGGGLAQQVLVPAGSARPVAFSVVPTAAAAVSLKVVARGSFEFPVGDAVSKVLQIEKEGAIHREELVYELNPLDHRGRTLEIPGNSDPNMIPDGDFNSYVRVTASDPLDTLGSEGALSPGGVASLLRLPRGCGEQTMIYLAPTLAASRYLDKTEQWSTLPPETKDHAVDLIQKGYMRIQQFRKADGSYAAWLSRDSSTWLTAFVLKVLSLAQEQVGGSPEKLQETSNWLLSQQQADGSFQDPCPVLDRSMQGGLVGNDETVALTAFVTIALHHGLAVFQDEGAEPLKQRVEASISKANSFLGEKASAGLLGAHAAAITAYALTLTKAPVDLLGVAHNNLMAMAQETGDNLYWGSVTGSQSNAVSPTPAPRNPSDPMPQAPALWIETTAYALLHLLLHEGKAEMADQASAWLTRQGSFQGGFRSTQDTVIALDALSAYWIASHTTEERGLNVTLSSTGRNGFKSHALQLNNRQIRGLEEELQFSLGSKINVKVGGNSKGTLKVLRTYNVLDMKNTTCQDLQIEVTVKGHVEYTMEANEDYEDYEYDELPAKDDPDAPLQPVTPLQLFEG

[2] = target: soluble human C3b (human) (UniProt P01024)
human C4b (human) [3] = target: T1, human C4b (human); remark: listed apart in the source
[4] = target: soluble human C3b (human) (UniProt P01024); remark: listed apart in the source

Row | Substance | C4b Screen Ref Fold (fold of reference) (human C4b (human) [1]) | iC3b Screen Ref Fold (fold of reference) [2] | C4c EC50 (nM) (human C4b (human) [3]) | iC3b EC50 [4] [nM] | C4b Screen Ref Fold (fold of CFI-HSA wild type) (human C4b (human) [1]) | iC3b Screen Ref Fold (fold of CFI-HSA wild type) [2] | C4c EC50 (human C4b (human) [3]) [nM]
1 | CFI-HSA variant K504Y (enzyme) | 2.86 | 0.18 | 196 | 51.6 | – | – | –
2 | CFI-HSA variant K504R; D425R; E457G; E461Q; N531G (enzyme) | – | – | 8.4 | 4.2 | 4.19 | 1.59 | –
3 | CFI-HSA variant K504V (enzyme) | 0.07 | 0.21 | > 1000 | 104 | – | – | –
4 | CFI-HSA variant A405S (enzyme) | 2.12 | 0.94 | 353 | 23.9 | – | – | –
5 | CFI-HSA variant G406R (enzyme) | 1.31 | 1.31 | 474 | 19 | – | – | –
6 | CFI-HSA variant K504W (enzyme) | 0.27 | 0.12 | > 1000 | 48.7 | – | – | –
7 | CFI-HSA variant Y403F (enzyme) | 3.55 | 0.41 | 338 | 47.8 | – | – | –
8 | CFI-HSA variant E457N (enzyme) | 4.31 | 0.9 | 215 | 16.3 | – | – | –
9 | CFI-HSA variant K504N (enzyme) | 0.57 | 0.18 | > 1000 | 76.8 | – | – | –
10 | CFI-HSA variant G406N (enzyme) | 0.94 | 0.59 | – | 35.2 | – | – | > 1000
11 | CFI-HSA variant E416A; E457G; E461Q; N531G (enzyme) | – | – | 26.1 | 4.2 | 4.01 | 1.69 | –
12 | CFI-HSA variant G406H (enzyme) | 1.17 | 0.6 | – | 20.4 | – | – | 197
13 | CFI-HSA variant D425G (enzyme) | 2.18 | 0.7 | – | 13.5 | – | – | > 1000
14 | CFI-HSA variant G406I (enzyme) | 0.97 | 0.4 | – | 54.4 | – | – | > 1000
15 | CFI-HSA variant K504R; E530F; E457G; E461Q; N531G (enzyme) | – | – | 16.2 | 4.6 | 3.91 | 1.8 | –
16 | CFI-HSA variant E392G (enzyme) | – | – | 143 | 9.6 | 1.3 | 1.66 | –

Row | Substance | C4b Screen Ref Fold (fold of reference) (human C4b (human) [1]) | iC3b Screen Ref Fold (fold of reference) [2] | C4c EC50 (nM) (human C4b (human) [3]) | iC3b EC50 [4] [nM] | C4b Screen Ref Fold (fold of CFI-HSA wild type) (human C4b (human) [1]) | iC3b Screen Ref Fold (fold of CFI-HSA wild type) [2] | C4c EC50 (human C4b (human) [3]) [nM]
17 | CFI-HSA variant N422G (enzyme) | – | – | 238 | 25.5 | 0.88 | 1.34 | –
18 | CFI-HSA variant N531L (enzyme) | 3.47 | 1.04 | 219 | 17.6 | – | – | –
19 | CFI-HSA variant E457G; E461Q; E530Y; N531G; P558S (enzyme) | – | – | 21 | 5.2 | 4.04 | 1.25 | –
20 | CFI-HSA variant E457Y (enzyme) | 0.12 | 0.03 | > 1000 | 90.6 | – | – | –
21 | CFI-HSA variant P558G; E457G; E461Q; N531G (enzyme) | – | – | 7.1 | 5 | 3.97 | 1.87 | –
22 | CFI-HSA variant N422K; E457G; E461Q; Q467K; N531G (enzyme) | – | – | 5 | 2.5 | 3.85 | 2.84 | –
23 | CFI-HSA variant G406L (enzyme) | 0.92 | 0.82 | – | 31.9 | – | – | 386
24 | CFI-HSA variant E457Q (enzyme) | 1.8 | 1 | 395 | 19.8 | – | – | –
25 | CFI-HSA variant G406A (enzyme) | 1.96 | 0.36 | 176 | 42.6 | – | – | –
26 | CFI-HSA variant E530F; E457G; E461Q; N531G (enzyme) | – | – | 9.1 | 2.9 | 4.17 | 2.48 | –
27 | CFI-HSA variant T377G; E457G; E461Q; R462K; F464Y; N531G (enzyme) | – | – | 3.5 | 4.2 | 4.5 | 2.05 | –
28 | CFI-HSA variant G406S (enzyme) | 1.83 | 0.4 | – | 32.6 | – | – | 315
29 | CFI-HSA variant T377G; K504H (enzyme) | – | – | 50.1 | 15.7 | 3.01 | 0.95 | –
30 | CFI-HSA variant G406Y (enzyme) | 0.43 | 0.39 | – | 14.9 | – | – | > 1000
31 | CFI-HSA variant N460G (enzyme) | – | – | 156 | 17.5 | 1.69 | 1.61 | –
32 | CFI-HSA variant E461V (enzyme) | 4.79 | 2.03 | 64.4 | 8.9 | – | – | –

Continued, values first:

Row | C4b Screen Ref Fold (fold of reference) (human C4b (human) [1]) | iC3b Screen Ref Fold (fold of reference) [2] | C4c EC50 (nM) (human C4b (human) [3]) | iC3b EC50 [4] [nM] | C4b Screen Ref Fold (fold of CFI-HSA wild type) (human C4b (human) [1]) | iC3b Screen Ref Fold (fold of CFI-HSA wild type) [2] | C4c EC50 (human C4b (human) [3]) [nM] | Substance
33 | – | – | 4 | 2.2 | 4.25 | 1.9 | – | CFI-HSA variant D425R; E457G; E461Q; N531G (enzyme)
34 | 3.83 | 1.44 | 100 | 9.8 | – | – | – | CFI-HSA variant E461I (enzyme)
35 | 0.05 | 0.84 | 530 | 49.1 | – | – | – | CFI-HSA variant Y408Q (enzyme)
36 | 0.17 | 1.21 | 930 | 29.1 | – | – | – | CFI-HSA variant Y408M (enzyme)
37 | – | – | 6.3 | 6.6 | 3.44 | 1.06 | – | CFI-HSA variant T377G; Y408L; E457G; E461Q; R462K; N531G (enzyme)
38 | 0.84 | 0.19 | – | 28.5 | – | – | 865 | CFI-HSA variant K418G; D425G (enzyme)
39 | 0.72 | 0.73 | – | 37.2 | – | – | > 1000 | CFI-HSA variant G406F (enzyme)
40 | 0.29 | 0.13 | > 1000 | 77.5 | – | – | – | CFI-HSA variant K504F (enzyme)
41 | 1.6 | 1.05 | 482 | 25.4 | – | – | – | CFI-HSA variant E457M (enzyme)
42 | 0.19 | 0.56 | 920 | 60.5 | – | – | – | CFI-HSA variant R456N (enzyme)
43 | 0.45 | 0.25 | > 1000 | 43.7 | – | – | – | CFI-HSA variant K504S (enzyme)
44 | – | – | 9 | 5.5 | 4.03 | 2.12 | – | CFI-HSA variant K504R; P558S; E457G; E461Q; N531G (enzyme)
45 | – | – | 23.3 | 3.4 | 4.08 | 2.12 | – | CFI-HSA variant T377G; E457G; E461Q; F464Y; N531G (enzyme)
46 | 2.48 | 0 | 99.8 | 21.2 | – | – | – | CFI-HSA variant N531M (enzyme)
47 | 4.58 | 1.37 | 135 | 9.5 | – | – | – | CFI-HSA variant E457K (enzyme)
